Results on three molecules are retold here after US20210277122A1 (SHANGHAI HENLIUS BIOTECH, published 2021).

For assay [1], the target named is T1, PD-1-His (purified recombinant 6xHis-tagged PD-1_ECD) (UniProt Q15116 25-170).
T1 construct: extracellular domain
As to the kind of experiment: SPR, affinity improvement against anti-PD-1 ref. (Surface plasmon resonance follows binding to a sensor surface in real time, without labels.)

In assay [2] the target is T1, PD-1-His (purified recombinant …). As to the kind of experiment: SPR, full-length IgG, PD-1-His analyte (method of Example 3).
Assay [3] shares this target. As to the kind of experiment: SPR, affinity improvement against the referenced anti-PD-1 antibody.
The target is the same in assay [4]. The experiment in a line: SPR, antibody captured on anti-human IgG Fc, PD-1-His analyte, 25 C, 1:1 Langmuir.
For assay [5], the target named is T2, PD-1 on activated human T cells.
T2 construct: the sheet names no target
The experiment in a line: flow cytometry on PHA-activated human T cells, FITC-labeled anti-human IgG Fcγ, MFI. (In general: A flow cytometer gives signals particle by particle.)

A further assay deals with T3, Human PD-1 (human).
T3 construct: PD-1 part of a purchased recombinant PD-1/Fc fusion protein; immobilized at 9 ng per well; also called recombinant human PD-1 fusion protein; PD-1/Fc (Sino Biological Inc.)
As to the kind of experiment: ELISA on immobilized human PD-1/Fc (9 ng per well), peroxidase-labeled anti-human IgG F(ab)'2, OD450nm. In general terms: In an ELISA, binding on a coated surface is turned into a signal by an enzyme label.

Another assay deals with T4, Cynomolgus PD-1 (cynomolgus monkey).
T4 construct: PD-1 part of a purchased recombinant PD-1/Fc fusion protein; immobilized at 9 ng per well; also called recombinant cynomolgus monkey PD-1 fusion protein; PD-1/Fc (Sino Biological Inc.)
The experiment in a line: ELISA on immobilized cynomolgus monkey PD-1/Fc (9 ng per well), peroxidase-labeled anti-human IgG F(ab)'2, OD450nm.

Assay [6] addresses T1, PD-1-His (purified recombinant …). The experiment in a line: ELISA on PD-1-His, anti-human IgG Fc-HRP, OD450.
For assay [7] the target is unchanged. The experiment in a line: blocking ELISA: antibody dilutions mixed with PD-L1-AP, added to PD-1-His coated wells, OD405.
The target of assay [8] is T5, recombinant human PD-1 at the cell surface (PD-1 transfected CHO-S cells) (human, UniProt Q15116 25-288).
T5 construct: whole, on cells; Also used as the target in the mixed leukocyte reaction rows, where it is human PD-1 on T cells; also called PD-1 expressing CHO-S cells; PD-1 expressed CHO-S cells
As to the kind of experiment: blocking flow cytometry: PD-1 expressing CHO-S cells incubated with antibody, washed, then biotin-labeled PD-L1-Fc and streptavidin-PE, MFI.

Assay [9] addresses T1, PD-1-His (purified recombinant …). As to the kind of experiment: competition ELISA: antibody dilutions pre-mixed with PD-1-His (0.1 µg/ml), then added to a plate coated with the referenced anti-PD-1 (4 µg/ml); anti-His-HRP, OD450.
For assay [10] the target is unchanged. The experiment in a line: competition ELISA: PD-1-His (0.1 µg/ml) first bound to a plate coated with the referenced anti-PD-1 (4 µg/ml), antibody dilutions added afterwards; anti-His-HRP, OD450.

T1 sequence (Q15116 other isoform, or with tags, fused parts or gaps limits assumed): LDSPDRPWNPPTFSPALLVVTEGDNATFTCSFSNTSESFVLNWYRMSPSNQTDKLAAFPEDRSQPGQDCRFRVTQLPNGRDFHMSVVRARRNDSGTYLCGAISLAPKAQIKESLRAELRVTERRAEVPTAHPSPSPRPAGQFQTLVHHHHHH
T3 sequence (Q15116 25-170): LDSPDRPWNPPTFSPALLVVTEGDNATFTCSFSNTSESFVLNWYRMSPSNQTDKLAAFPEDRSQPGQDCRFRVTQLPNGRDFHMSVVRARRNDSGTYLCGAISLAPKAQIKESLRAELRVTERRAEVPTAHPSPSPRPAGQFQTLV
T5 sequence (Q15116 25-288): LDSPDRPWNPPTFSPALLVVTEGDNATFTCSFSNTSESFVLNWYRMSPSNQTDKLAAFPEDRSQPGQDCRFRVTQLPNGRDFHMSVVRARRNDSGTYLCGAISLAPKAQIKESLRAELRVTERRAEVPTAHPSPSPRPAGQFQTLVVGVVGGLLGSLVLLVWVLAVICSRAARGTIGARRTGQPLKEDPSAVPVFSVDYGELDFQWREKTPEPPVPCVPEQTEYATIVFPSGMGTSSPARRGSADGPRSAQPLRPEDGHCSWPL
T2 sequence (chain, as listed by the source limits assumed): as the sequence (Q15116 25-288) above

B1: humanized anti-PD-1 antibody 1G4 (h1G4) (antibody, human IgG4 S228P, kappa, V domains shown)
VH: QVQLVESGGGLVKPGGSLRLSCAASGFTFSNYGMSWIRQAPGKGLEWVSTISGGGSNIYYADSVKGRFTISRDNAKNSLYLQMNSLRAEDTAVYYCVSYYYGIDFWGQGTSVTVSS
VL: DIQMTQSPSSLSASVGDRVTITCKASQDVTTAVAWYQQKPGKAPKLLIYWASTRHTGVPSRFSGSGSGTDFTLTISSLQPEDFATYYCQQHYTIPWTFGGGTKLEIKR
notes: CDRs of c1G4 grafted onto IGKV1-39*01 and IGHV3-11*04; also called HLX10; humanized h1G4
For B1, the Improvement in assay [1] is 6.66 fold; in assay [3] it was 6.37 fold. Besides, the dissociation constant Kd in assay [2] is 0.479 nM; in [4] it was 0.265 nM. Besides, the koff in [2] turned out to be 0.000216 s⁻¹; in assay [4] it was 7.98e-05 s⁻¹. In addition, the results for the on-rate (kon) in [2] and in assay [4] were 457000 M⁻¹ s⁻¹ and 310000 M⁻¹ s⁻¹, respectively. The concentration giving a half-maximal response (EC50 (read off the curve)) is ~0.1 µg/mL in [5], ~0.03 µg/mL with Human PD-1 and ~0.04 µg/mL in the assay with Cynomolgus PD-1.

B2: chimeric anti-PD-1 antibody c1G4 (antibody, human IgG4 S228P, kappa, V domains shown)
VH: EVMLVESGGGLVKPGGSLKLSCAASGFTFSNYGMSWVRQTPEKSLEWVATISGGGSNIYYPDSVKGRFTISRDNAKNNLFLQMSGLRSEDTALYYCVSYYYGIDFWGQGTSVTVSS
VL: DIVMTQSHKFMSTSVGDRVSITCKASQDVTTAVAWYQQKPGQSPKLLIYWASTRHTGVPDRFTGSGSGTDYTLTINSVQAEDLALYYCQQHYTIPWTFGGGTKLEIKR
notes: also called chimeric c1G4
Take B2: the Improvement in assay [1] is 4.07 fold; in assay [3], 9.38 fold. In addition, in assay [6], the “EC50 (read off the curve)” value was ~0.04 µg/mL. For the same molecule, the dissociation constant (Kd) is 0.325 nM in assay [2] and 0.434 nM in assay [4]. Moreover, the koff in assay [2] came to 0.000177 s⁻¹; in assay [4] it was 0.000104 s⁻¹. For the same molecule, the results for the on-rate constant (kon) in assay [2] and in [4] were 550000 M⁻¹ s⁻¹ and 244000 M⁻¹ s⁻¹, respectively. For the same molecule, the “IC50 (read off the curve)” value in assay [7] was ~0.4 µg/mL; in [8], ~0.6 µg/mL; in [9] it was ~0.5 µg/mL; in assay [10], ~0.8 µg/mL.

B3: referenced anti-PD-1 antibody (antibody, human IgG4 S228P, kappa, V domains shown)
VH: QVQLVESGGGVVQPGRSLRLDCKASGITFSNSGMHWVRQAPGKGLEWVAVIWYDGSKRYYADSVKGRFTISRDNSKNTLFLQMNSLRAEDTAVYYCATNDDYWGQGTLVTVSS
VL: EIVLTQSPATLSLSPGERATLSCRASQSVSSYLAWYQQKPGQAPRLLIYDASNRATGIPARFSGSGSGTDFTLTISSLEPEDFAVYYCQQSSNWPRTFGQGTKVEIKR
As for B3, the 50% effective concentration (EC50 (read off the curve)) with Human PD-1 was ~0.02 µg/mL; in the assay with Cynomolgus PD-1 it was ~0.03 µg/mL.

A word on the Kd: it is the free concentration of one partner at which half of the binding sites on the other are occupied at equilibrium, for simple one-to-one binding. The term koff denotes the first-order rate constant of dissociation. The kon is a measure of how fast the partners come together. By EC50 (read off the curve) is commonly meant the concentration needed to bring the measured effect to its halfway point.
